Assay results: patent US20200407424A1 (FRAUNHOFER GESELLSCHAFT ZUR F RDERUNG DER ANGEWANDTEN …, published 2020)
Where two headings read alike, the source gives them in different places. Values belong to the binder of their own block, whether it stands above or below them. Square brackets hold non-standard residues; d marks the D form. Ends that are not written are not given here. Cit = NC(=O)NCCC[C@H](N)C(=O)O

Legend:
Assay in all cases: in vitro binding assay
[1] = target: T1, recombinant MHC class II protein of the HLA DRB1 0404 genotype (human)
T1 construct: construct not described

[2] = target: T2, recombinant MHC class II protein of the HLA DRB1 1001 genotype (human)
T2 construct: construct not described

[3] = target: T3, recombinant MHC class II protein of the HLA DRB1 0405 genotype (human)
T3 construct: construct not described

[4] = target: T1, recombinant MHC class II protein of the …; remark: listed apart in the source
[5] = target: T4, recombinant MHC class II protein of the HLA DRB1 0408 genotype (human)
T4 construct: construct not described

[6] = target: T5, recombinant MHC class II protein of the HLA DRB1 0101 genotype (human)
T5 construct: construct not described

[7] = target: T6, recombinant MHC class II protein of the HLA DRB1 0401 genotype (human)
T6 construct: construct not described; also called HLA-DR0401

[8] = target: T6, recombinant MHC class II protein of the …; remark: listed apart in the source
[9] = target: T5, recombinant MHC class II protein of the …; remark: listed apart in the source
[10] = target: T3, recombinant MHC class II protein of the …; remark: listed apart in the source

binding result [1]: binds
B1: vimentin peptide ref no 44 (peptide)
peptide: ARLDLERKVESLQEE

binding result [1]: binds
B2: vimentin peptide ref no 92 (peptide)
peptide: GQVINETSQHHDDLE

binding result [2]: no binding
binding result [3]: binds
binding result [4]: binds
binding result [5]: no binding
binding result [6]: binds
binding result [7]: binds
B3: citrullinated a-enolase peptide ref no 313 (peptide)
peptide: K[Cit]IAKAVNEKSCNCL
modifications: cysteine pairing not given here

binding result [8]: binds
binding result [1]: binds
binding result [9]: no binding
B4: citrullinated vimentin peptide ref no 93 (peptide)
peptide: MST[Cit]SVSSSSY[Cit][Cit]MF

binding result [10]: no binding
binding result [8]: binds
binding result [9]: no binding
B5: vimentin peptide ref no 34 (peptide)
peptide: NDKARVEVERDNLAE

binding result [8]: no binding
binding result [9]: binds
B6: vimentin peptide ref no 13 (peptide)
peptide: YATRSSAVRLRSSVP

binding result [10]: no binding
binding result [1]: no binding
binding result [9]: binds
B7: citrullinated vimentin peptide ref no 117 (peptide)
peptide: LLAELEQLKGQGKS[Cit]

binding result [9]: binds
B8: citrullinated vimentin peptide ref no 156 (peptide)
peptide: XEYQDLLNVKMALDI
modifications: citrulline (Xaa) at 1

binding result [7]: no binding
B9: corresponding non-citrullinated peptide of a-enolase peptide 292 (peptide)
peptide: FRAAVPSGASTGIYE

binding result [8]: binds
B10: citrullinated vimentin peptide ref no 150 (peptide)
peptide: FAVEAANYQDTIG[Cit]L

binding result [8]: binds
binding result [1]: no binding
binding result [9]: binds
B11: vimentin peptide ref no 42 (peptide)
peptide: FRQDVDNASLARLDL

binding result [7]: no binding
B12: corresponding non-citrullinated peptide of a-enolase peptide 324 (peptide)
peptide: KAKFAGRNFRNPLAK

binding result [1]: no binding
binding result [9]: binds
B13: vimentin peptide ref no 27 (peptide)
peptide: LLAELEQLKGQGKSR

binding result [2]: no binding
binding result [3]: binds
binding result [4]: binds
binding result [5]: no binding
binding result [6]: no binding
binding result [7]: binds
B14: citrullinated a-enolase peptide ref no 301 (peptide)
peptide: QEFMILPVGAANF[Cit]E

binding result [8]: no binding
binding result [1]: binds
binding result [9]: binds
B15: vimentin peptide ref no 79 (peptide)
peptide: MALDIEIATYRKLLE

binding result [10]: binds
binding result [8]: binds
binding result [1]: binds
B16: vimentin peptide ref no 41 (peptide)
peptide: NTLQSFRQDVDNASL

binding result [7]: no binding
B17: corresponding non-citrullinated peptide of a-enolase peptide 300 (peptide)
peptide: YRHIADLAGNSEVIL

binding result [2]: no binding
binding result [3]: binds
binding result [4]: binds
binding result [5]: no binding
binding result [6]: no binding
binding result [7]: binds
B18: citrullinated a-enolase peptide ref no 302 (peptide)
peptide: LPVGAANF[Cit]EAM[Cit]IG

binding result [8]: binds
binding result [9]: binds
B19: citrullinated vimentin peptide ref no 95 (peptide)
peptide: Y[Cit][Cit]MFGGPGTAS[Cit]PS

binding result [2]: no binding
binding result [3]: binds
binding result [4]: binds
binding result [5]: no binding
binding result [6]: binds
binding result [7]: binds
B20: citrullinated a-enolase peptide ref no 292 (peptide)
peptide: F[Cit]AAVPSGASTGIYE

binding result [2]: no binding
binding result [3]: binds
binding result [4]: binds
binding result [5]: no binding
binding result [6]: no binding
binding result [7]: binds
B21: citrullinated a-enolase peptide ref no 324 (peptide)
peptide: KAKFAG[Cit]NF[Cit]NPLAK

binding result [7]: no binding
B22: corresponding non-citrullinated peptide of a-enolase peptide 302 (peptide)
peptide: LPVGAANFREAMRIG

binding result [2]: no binding
binding result [3]: binds
binding result [4]: binds
binding result [5]: binds
binding result [6]: no binding
B23: a-enolase peptide ref no 49 (peptide)
peptide: VIGMDVAASEFFRSG

binding result [1]: binds
B24: vimentin peptide ref no 14 (peptide)
peptide: SAVRLRSSVPGVRLL

binding result [8]: binds
B25: vimentin peptide ref no 20 (peptide)
peptide: FKNTRTNEKVELQEL

binding result [8]: binds
B26: vimentin peptide ref no 59 (peptide)
peptide: YKSKFADLSEAANRN

binding result [8]: binds
B27: citrullinated vimentin peptide ref no 145 (peptide)
peptide: STEY[Cit][Cit]QVQSLTCEV

binding result [10]: binds
binding result [8]: binds
binding result [9]: binds
B28: vimentin peptide ref no 64 (peptide)
peptide: STEYRRQVQSLTCEV

binding result [2]: no binding
binding result [3]: binds
binding result [4]: no binding
binding result [5]: no binding
binding result [6]: no binding
binding result [7]: binds
B29: citrullinated a-enolase peptide ref no 300 (peptide)
peptide: Y[Cit]HIADLAGNSEVIL

binding result [8]: binds
binding result [1]: no binding
B30: citrullinated vimentin peptide ref no 159 (peptide)
peptide: XKLLEGEESXISLPL
modifications: citrulline (Xaa) at 1, 10

binding result [9]: binds
B31: citrullinated vimentin peptide ref no 132 (peptide)
peptide: F[Cit]QDVDNASLA[Cit]LDL

binding result [10]: binds
binding result [9]: binds
B32: vimentin peptide ref no 77 (peptide)
peptide: REYQDLLNVKMALDI

binding result [10]: binds
binding result [8]: binds
B33: citrullinated vimentin peptide ref no 98 (peptide)
peptide: SS[Cit]SYVTTST[Cit]TYSL

binding result [8]: binds
binding result [9]: binds
B34: citrullinated vimentin peptide ref no 99 (peptide)
peptide: VTTST[Cit]TYSLGSAL[Cit]

binding result [2]: no binding
binding result [3]: binds
binding result [4]: no binding
binding result [5]: no binding
binding result [6]: no binding
binding result [7]: binds
B35: citrullinated a-enolase peptide ref no 305 (peptide)
peptide: VIGMDVAASEFF[Cit]SG

binding result [8]: binds
binding result [9]: no binding
B36: vimentin peptide ref no 16 (peptide)
peptide: GVRLLQDSVDFSLAD

binding result [2]: no binding
binding result [3]: binds
binding result [4]: binds
binding result [5]: no binding
binding result [6]: binds
B37: a-enolase peptide ref no 34 (peptide)
peptide: QEFMILPVGAANFRE

binding result [8]: binds
B38: vimentin peptide ref no 71 (peptide)
peptide: FAVEAANYQDTIGRL

binding result [1]: binds
binding result [9]: binds
B39: vimentin peptide ref no 32 (peptide)
peptide: ELRRQVDQLTNDKAR

binding result [2]: binds
binding result [3]: binds
binding result [4]: binds
binding result [5]: no binding
binding result [6]: binds
binding result [7]: binds
B40: citrullinated a-enolase peptide ref no 287 (peptide)
peptide: MSILKIHA[Cit]EIFDS[Cit]

binding result [2]: no binding
binding result [3]: binds
binding result [4]: no binding
binding result [5]: no binding
binding result [6]: no binding
binding result [7]: binds
B41: citrullinated a-enolase peptide ref no 289 (peptide)
peptide: IFDS[Cit]GNPTVEVDLF

binding result [2]: no binding
binding result [3]: binds
binding result [4]: no binding
binding result [5]: no binding
binding result [6]: no binding
binding result [7]: binds
B42: citrullinated a-enolase peptide ref no 297 (peptide)
peptide: [Cit]YMGKGVSKAVEHIN

binding result [8]: binds
binding result [9]: binds
B43: vimentin peptide ref no 55 (peptide)
peptide: DVRQQYESVAAKNLQ
